Biological target: the molecule itself
Assay: crystal structure

B1: VapC26 toxin with N-terminal (His)6 tag (native, co-expressed with VapB26) (natural protein)
chain: MIIDTSALLAYFDAAEPDHAAVSECIDSSADALVVSPYVVAELDYLVATRVGVDAELAVLRELAGGAWELANCGAAEIEQAARIVTKYQDQRIGIADAANVVLADRYRTRTILTLDRRHFSALRPIGGGRFTVIP
  binding result: binds
